Assay [1] addresses T1, human CD81 on CD81-expressing cells (Jurkat E6.1, human PBMC, Ramos) (human, UniProt P60033 1-236).
T1 sequence: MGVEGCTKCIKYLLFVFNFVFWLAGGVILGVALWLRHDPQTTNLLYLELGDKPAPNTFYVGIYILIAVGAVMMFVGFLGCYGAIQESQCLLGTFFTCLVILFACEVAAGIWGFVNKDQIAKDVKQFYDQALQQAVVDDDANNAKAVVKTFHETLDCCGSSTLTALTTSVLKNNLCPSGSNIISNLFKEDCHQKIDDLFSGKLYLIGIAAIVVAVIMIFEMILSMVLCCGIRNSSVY
As to the kind of experiment: cell-based or functional assay.

Another assay concerns the target T2, human CD81 mutant G158A (human, UniProt P60033 1-236, limits assumed).
T2 construct: as m30; not shown: C-terminal V5 and 6xHis tags
T2 sequence: T1 sequence with G158A
Kind of assay: ELISA. For orientation: An ELISA detects its analyte on a solid surface through an enzyme-linked reagent.

The next assay concerns the target T3, human CD81 mutant S168T (human, UniProt P60033 1-236, limits assumed).
T3 construct: as m30; not shown: C-terminal V5 and 6xHis tags
T3 sequence: T1 sequence with S168T
Kind of assay: ELISA.

For another assay, the target named is T4, human CD81 mutant H151R (human, UniProt P60033 1-236, limits assumed).
T4 construct: as m30; also called H151B; not shown: C-terminal V5 and 6xHis tags
T4 sequence: T1 sequence with H151R
As to the kind of experiment: ELISA.

The next assay concerns the target T5, human CD81 mutant V169L (human, UniProt P60033 1-236, limits assumed).
T5 construct: as m30; not shown: C-terminal V5 and 6xHis tags
T5 sequence: T1 sequence with V169L
Kind of assay: ELISA.

A further assay has as its target T6, human CD81 mutant D137E (human, UniProt P60033 1-236, limits assumed).
T6 construct: as m30; not shown: C-terminal V5 and 6xHis tags
T6 sequence: T1 sequence with D137E
As to the kind of experiment: ELISA.

Another assay has as its target T7, human CD81 mutant V135L (human, UniProt P60033 1-236, limits assumed).
T7 construct: as m30; not shown: C-terminal V5 and 6xHis tags
T7 sequence: T1 sequence with V135L
Kind of assay: ELISA.

In a further assay the target is T8, human CD81 mutant A164V (human, UniProt P60033 1-236, limits assumed).
T8 construct: as m30; not shown: C-terminal V5 and 6xHis tags
T8 sequence: T1 sequence with A164V
Kind of assay: ELISA.

For another assay, the target named is T9, human CD81 mutant T163A (human, UniProt P60033 1-236, limits assumed).
T9 construct: as m30; not shown: C-terminal V5 and 6xHis tags
T9 sequence: T1 sequence with T163A
Kind of assay: ELISA.

In another assay the target is T10, human CD81 mutant I194A (human, UniProt P60033 1-236, limits assumed).
T10 construct: as m30; not shown: C-terminal V5 and 6xHis tags
T10 sequence: T1 sequence with I194A
As to the kind of experiment: ELISA.

Where a chain is given by its changes, count along the chain named. Names and notes keep the numbering of the source.

B1: 002-A07 IgG4 antibody (antibody)
heavy: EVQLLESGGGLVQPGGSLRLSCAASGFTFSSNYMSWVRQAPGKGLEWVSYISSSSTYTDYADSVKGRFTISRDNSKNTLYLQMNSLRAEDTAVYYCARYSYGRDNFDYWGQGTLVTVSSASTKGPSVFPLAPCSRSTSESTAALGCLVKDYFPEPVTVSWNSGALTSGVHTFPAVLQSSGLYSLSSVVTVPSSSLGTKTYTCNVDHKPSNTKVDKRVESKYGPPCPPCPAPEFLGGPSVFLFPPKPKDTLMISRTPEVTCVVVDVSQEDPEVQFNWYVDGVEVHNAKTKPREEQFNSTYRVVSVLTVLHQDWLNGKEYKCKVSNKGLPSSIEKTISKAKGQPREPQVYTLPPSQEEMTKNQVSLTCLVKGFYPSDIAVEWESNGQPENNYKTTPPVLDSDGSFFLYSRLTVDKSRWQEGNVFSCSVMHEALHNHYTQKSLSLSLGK
light: QSVLTQPPSASGTPGQRVTISCTGSTSNIGAGYDTHWYQQLPGTAPKLLIYGNSNRPSGVPDRFSGSKSGTSASLAISGLRSEDEADYYCQSYDTNLSVWVFGGGTKLTVLGQPKAAPSVTLFPPSSEELQANKATLVCLISDFYPGAVTVAWKADSSPVKAGVETTTPSKQSNNKYAASSYLSLTPEQWKSHRSYSCQVTHEGSTVEKTVAPTECS
notes: human IgG4 S228P, lambda light chain
For the molecule B1, the “Jurkat chemotaxis (% of control IgG4) at 0.001 µg/mL” value in assay [1] turned out to be 90%. The “Jurkat chemotaxis (% of control IgG4) at 0.01 µg/mL” value in assay [1] stood at 93%. Moreover, the “Jurkat chemotaxis (% of control IgG4) at 0.1 µg/mL” value in assay [1] turned out to be 21%. The “Jurkat chemotaxis (% of control IgG4) at 1 µg/mL” value in assay [1] is -2%. Besides, the “Jurkat chemotaxis (% of control IgG4) at 10 µg/mL” value in assay [1] was 3%. The relative binding affinity in the assay with human CD81 mutant G158A, in the assay with human CD81 mutant S168T, with human CD81 mutant H151R, in the assay with human CD81 mutant V169L, with human CD81 mutant D137E and with human CD81 mutant V135L was less than 20% in each case. Further, the relative binding affinity in the assay with human CD81 mutant A164V, with human CD81 mutant T163A and with human CD81 mutant I194A was less than 20% throughout.

B2: 002-A07 N113S (antibody, human IgG4 S228P, lambda, V domains shown)
VH: EVQLLESGGGLVQPGGSLRLSCAASGFTFSSNYMSWVRQAPGKGLEWVSYISSSSTYTDYADSVKGRFTISRDNSKNTLYLQMNSLRAEDTAVYYCARYSYGRDNFDYWGQGTLVTVSS
VL: QSVLTQPPSASGTPGQRVTISCTGSTSNIGAGYDTHWYQQLPGTAPKLLIYGNSNRPSGVPDRFSGSKSGTSASLAISGLRSEDEADYYCQSYDTSLSVWVFGGGTKLTVLG
notes: IgG4 S228P; glycosylation site mutant of 002-A07 VL
B2: the “Jurkat chemotaxis (% of control IgG4) at 0.001 µg/mL” value in [1] came out at 99%. The “Jurkat chemotaxis (% of control IgG4) at 0.01 µg/mL” value in assay [1] was determined as 101%. For the same molecule, in assay [1], the “Jurkat chemotaxis (% of control IgG4) at 0.1 µg/mL” value came to 40%. In addition, the “Jurkat chemotaxis (% of control IgG4) at 1 µg/mL” value in assay [1] is 13%. In addition, the “Jurkat chemotaxis (% of control IgG4) at 10 µg/mL” value in assay [1] turned out to be 12%. The relative binding affinity with human CD81 mutant G158A, with human CD81 mutant S168T, with human CD81 mutant H151R, in the assay with human CD81 mutant V169L, with human CD81 mutant D137E and in the assay with human CD81 mutant V135L was less than 20% in each case. Moreover, the relative binding affinity with human CD81 mutant A164V, with human CD81 mutant T163A and with human CD81 mutant I194A was less than 20% each time.

B3: 002-A07 N113G (antibody, human IgG4 S228P, lambda, V domains shown)
VH: B2 VH
VL: B2 VL with S96G
notes: as for B2
B3: in [1], the “Jurkat chemotaxis (% of control IgG4) at 0.001 µg/mL” value is 99%. For the same molecule, the “Jurkat chemotaxis (% of control IgG4) at 0.01 µg/mL” value in assay [1] worked out at 101%. Moreover, the “Jurkat chemotaxis (% of control IgG4) at 0.1 µg/mL” value in assay [1] is 38%. Further, the “Jurkat chemotaxis (% of control IgG4) at 1 µg/mL” value in assay [1] amounted to 13%. In addition, the “Jurkat chemotaxis (% of control IgG4) at 10 µg/mL” value in [1] worked out at 7%. Further, the relative binding affinity with human CD81 mutant G158A, with human CD81 mutant S168T, with human CD81 mutant H151R, with human CD81 mutant V169L, with human CD81 mutant D137E and with human CD81 mutant V135L was less than 20% in each case. The relative binding affinity with human CD81 mutant A164V, with human CD81 mutant T163A and in the assay with human CD81 mutant I194A was less than 20% each time.

B4: 003-D07 (antibody, human IgG4 S228P, lambda, V domains shown)
VH: B2 VH with G102D
VL: B2 VL with P8F, Q40H, S96N
notes: IgG4 S228P
As for B4, in assay [1], the “Jurkat chemotaxis (% of control IgG4) at 0.001 µg/mL” value came to 87%, the “Jurkat chemotaxis (% of control IgG4) at 0.01 µg/mL” value was found to be 79%, the “Jurkat chemotaxis (% of control IgG4) at 0.1 µg/mL” value turned out to be 42% and the “Jurkat chemotaxis (% of control IgG4) at 1 µg/mL” value is -5%. Also, in assay [1], the “Jurkat chemotaxis (% of control IgG4) at 10 µg/mL” value is -9%. Further, the relative binding affinity in the assay with human CD81 mutant H151R is less than 20%. Besides, the relative binding affinity with human CD81 mutant V169L is less than 20%. Further, in the assay with human CD81 mutant V135L, the relative binding affinity was less than 20%. Also, the relative binding affinity with human CD81 mutant A164V is less than 20%. The molecule further had a relative binding affinity in the assay with human CD81 mutant I194A of less than 20%.

B5: 002-A07 N113Q (antibody, human IgG4 S228P, lambda, V domains shown)
VH: B2 VH
VL: B2 VL with S96Q
notes: as for B2
Turning to B5, in assay [1], the “Jurkat chemotaxis (% of control IgG4) at 0.001 µg/mL” value was determined as 104%. Besides, in assay [1], the “Jurkat chemotaxis (% of control IgG4) at 0.01 µg/mL” value is 99%. Moreover, the “Jurkat chemotaxis (% of control IgG4) at 0.1 µg/mL” value in assay [1] was determined as 37%. For the same molecule, the “Jurkat chemotaxis (% of control IgG4) at 1 µg/mL” value in [1] came out at 13%. Moreover, the “Jurkat chemotaxis (% of control IgG4) at 10 µg/mL” value in assay [1] was 12%. For the same molecule, the relative binding affinity in the assay with human CD81 mutant G158A, with human CD81 mutant S168T, with human CD81 mutant H151R, in the assay with human CD81 mutant V169L, with human CD81 mutant D137E and in the assay with human CD81 mutant V135L was less than 20% in each case. Moreover, the relative binding affinity with human CD81 mutant A164V, with human CD81 mutant T163A and with human CD81 mutant I194A was less than 20% throughout.
